The source of these data is the supplement of paper PMC10567573.

Sequences and labels used below:
B1: SOAT2 (parent)
chain: SLGKQKVFIIRKSLLDELMEVQHF
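Also: lentivirally expressed fusions sorted by FACS into six bins by GFP to DsRed ratio, PSI derived from sequencing read proportions per bin multiplied by bin number.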

In the data set the parent is B1. The experiment in a line: protein stability index of a GFP-peptide fusion (GPS, HEK-293T) (PSI 1-6); higher = more stable. The following applies: c terminus: a fixed tail appended.
As to SLGKQKVFIIRKSLLDELMEVQHQ [F24Q], the protein stability index worked out at 2.75.

Consider SLGKQKVFIIRKSLLDELMEVQHL [F24L], for which the protein stability index is 2.18.

Consider SLGKQKVFIIRKALLDELMEVQHF [S13A], for which the protein stability index was found to be 1.43.

Take SLGKQKVFIIRKYLLDELMEVQHF [S13Y]: the protein stability index worked out at 2.52.

For the variant SLGKQKVFIIRKWLLDELMEVQHF [S13W], the protein stability index turned out to be 1.73.

With SLGKQKVFIIRKCLLDELMEVQHF [S13C], the protein stability index came out at 2.25.

In the case of SLGKQKVFIIRKNLLDELMEVQHF [S13N], the protein stability index was 2.86.

Regarding SLGKQKVFIIRKGLLDELMEVQHF [S13G], the protein stability index was 1.33.

Consider SLGKQKVFIIRKELLDELMEVQHF [S13E], for which the protein stability index amounted to 2.55.

Regarding SLGKQKVFIIRKVLLDELMEVQHF [S13V], the protein stability index worked out at 1.88.

With SLGKQKVFIIRKRLLDELMEVQHF [S13R], the protein stability index was found to be 2.86.

As to SLGKQKVFIIRKILLDELMEVQHF [S13I], the protein stability index is 3.3.

As to SLGKQKVFIIRKKLLDELMEVQHF [S13K], the protein stability index turned out to be 1.67.

As to SLGKQKVFIIRKSLLDELMEVFHF [Q22F], the protein stability index is 2.2.

As to SLGKQKVFIIRKSLLDELMEVCHF [Q22C], the protein stability index is 2.01.

Turning to SLGKQKVFIIRKSLLDELMEVPHF [Q22P], the protein stability index was 1.79.

Consider SLGKQKVFIIRKSLLDELMEVYHF [Q22Y], for which the protein stability index turned out to be 2.55.

As for SLGKQKVFIIRKSLLDELMEVMHF [Q22M], the protein stability index was 2.09.

On to SLGKQKVFIIRKSLLDELMEVEHF [Q22E], for which the protein stability index was determined as 2.74.

For the variant SLGKQKVFIIRKSLLDELMEVAHF [Q22A], the protein stability index is 2.4.

With SLGKQKVFIIRKSLLDELMEVHHF [Q22H], the protein stability index is 1.91.

Consider SLGKQKVFIIRKSLLDELMEVLHF [Q22L], for which the protein stability index came to 2.24.

For SLGKQKVFIIRKSLWDELMEVQHF [L15W], the protein stability index came to 2.68.

For the variant SLGKQKVFIIRKSLPDELMEVQHF [L15P], the protein stability index worked out at 1.56.

Regarding SLGKQKVFIIRKSLEDELMEVQHF [L15E], the protein stability index was 2.29.

Consider SLGKQKVFIIRKSLFDELMEVQHF [L15F], for which the protein stability index was determined as 3.01.

As to SLGKQKVFIIRKSLRDELMEVQHF [L15R], the protein stability index was 2.41.

SLGKQKVFIIRKSLLDELMTVQHF [E20T]: the protein stability index came to 2.8.

In the case of SLGKQKVFIIRKSLLDELMHVQHF [E20H], the protein stability index was found to be 1.45.

As to SLGKQKVFIIRKSLLDELMCVQHF [E20C], the protein stability index came to 2.19.

On to SLGKQKVFIIRKSLLDELMRVQHF [E20R], for which the protein stability index was determined as 2.84.

SLGKQKVFIIRKSLLDELMGVQHF [E20G]: the protein stability index was 2.85.

Take SLGKQKVFIIRKSLLDELMFVQHF [E20F]: the protein stability index was 3.11.

Turning to SLGKQKVFIIRKSLLDELMLVQHF [E20L], the protein stability index was 3.13.

For the variant SLGKQKVFIIRKSLLDELMVVQHF [E20V], the protein stability index was 1.83.

Consider SLGKQKVFIITKSLLDELMEVQHF [R11T], for which the protein stability index worked out at 2.61.

On to SLGKQKVFIIFKSLLDELMEVQHF [R11F], for which the protein stability index was found to be 1.78.

For the variant SLGKQKVFIICKSLLDELMEVQHF [R11C], the protein stability index was 2.61.

For SLGKQKVFIIGKSLLDELMEVQHF [R11G], the protein stability index was found to be 3.02.

Regarding SLGKQKVFIISKSLLDELMEVQHF [R11S], the protein stability index was determined as 2.11.

Turning to SLGKQKVFIIEKSLLDELMEVQHF [R11E], the protein stability index was 2.99.

Take SLGKQKVFIILKSLLDELMEVQHF [R11L]: the protein stability index was 2.96.

Regarding SLGKQKVFIIMKSLLDELMEVQHF [R11M], the protein stability index amounted to 1.53.

In the case of SLGKQKVFIIRKSLLDELGEVQHF [M19G], the protein stability index was determined as 2.23.

With SLGKQKVFIIRKSLLDELVEVQHF [M19V], the protein stability index is 1.66.

Take SLGKQKVFIIRKSLLDELLEVQHF [M19L]: the protein stability index turned out to be 2.67.

For SLGKQKVFIIRKSLLDELNEVQHF [M19N], the protein stability index is 3.23.

For SLGKQKVFIIRKSLLDELQEVQHF [M19Q], the protein stability index was 2.25.

As to SLGKQKVFIIRKSLLDELDEVQHF [M19D], the protein stability index was determined as 2.24.

Regarding SLGKQKVFIIRKSLLDELPEVQHF [M19P], the protein stability index stood at 2.08.

Take SLGKQKVFIIRKSLLDELREVQHF [M19R]: the protein stability index was 1.94.

With SLGKQKRFIIRKSLLDELMEVQHF [V7R], the protein stability index came out at 2.16.

Take SLGKQKMFIIRKSLLDELMEVQHF [V7M]: the protein stability index was found to be 1.82.

Take SLGKQKQFIIRKSLLDELMEVQHF [V7Q]: the protein stability index is 1.82.

For the variant SLGKQKLFIIRKSLLDELMEVQHF [V7L], the protein stability index is 3.44.

For SLGKQKNFIIRKSLLDELMEVQHF [V7N], the protein stability index is 1.92.

Take SLGKQKFFIIRKSLLDELMEVQHF [V7F]: the protein stability index amounted to 2.56.

Regarding SLGKQKHFIIRKSLLDELMEVQHF [V7H], the protein stability index came out at 1.59.

Regarding SLGKQKVFSIRKSLLDELMEVQHF [I9S], the protein stability index is 2.15.

With SLGKQKVFNIRKSLLDELMEVQHF [I9N], the protein stability index stood at 2.02.

As to SLGKQKVFYIRKSLLDELMEVQHF [I9Y], the protein stability index came to 2.85.

On to SLGKQKVFKIRKSLLDELMEVQHF [I9K], for which the protein stability index stood at 1.58.

SLGKQKVFTIRKSLLDELMEVQHF [I9T]: the protein stability index was 1.84.

As for SLGKQKVFAIRKSLLDELMEVQHF [I9A], the protein stability index turned out to be 1.99.

For the variant SLGKQKVFQIRKSLLDELMEVQHF [I9Q], the protein stability index was found to be 1.89.

Regarding SLGKQKVFDIRKSLLDELMEVQHF [I9D], the protein stability index was 2.18.

Consider SLGKQKVFGIRKSLLDELMEVQHF [I9G], for which the protein stability index was 1.79.

As for SLGKQKVFIIRKSLLDQLMEVQHF [E17Q], the protein stability index came to 3.16.

On to SLGKQKVFIIRKSLLDDLMEVQHF [E17D], for which the protein stability index is 2.51.

On to SLGKQKVFIIRKSLLDHLMEVQHF [E17H], for which the protein stability index was found to be 4.16.

Regarding SLGKQKVFIIRKSLLDALMEVQHF [E17A], the protein stability index turned out to be 3.06.

With SLGKQKVFIIRKSLLDNLMEVQHF [E17N], the protein stability index came out at 2.79.

Take SLGKQKVFIIRKSLLDPLMEVQHF [E17P]: the protein stability index turned out to be 2.21.

On to SLGKQKVFIIRKSLLDTLMEVQHF [E17T], for which the protein stability index came to 3.87.

In the case of SLGKQKVFIIRKSLLDSLMEVQHF [E17S], the protein stability index amounted to 3.09.

On to SLGKQKVDIIRKSLLDELMEVQHF [F8D], for which the protein stability index turned out to be 2.12.

For the variant SLGKQKVPIIRKSLLDELMEVQHF [F8P], the protein stability index stood at 1.66.

Consider SLGKQKVMIIRKSLLDELMEVQHF [F8M], for which the protein stability index was found to be 1.58.

Consider SLGKQKVEIIRKSLLDELMEVQHF [F8E], for which the protein stability index amounted to 2.58.

Consider SLGKQKVQIIRKSLLDELMEVQHF [F8Q], for which the protein stability index came out at 1.97.

Turning to SLGKQKVSIIRKSLLDELMEVQHF [F8S], the protein stability index amounted to 2.03.

In the case of SLGKQKVTIIRKSLLDELMEVQHF [F8T], the protein stability index came out at 1.32.

For the variant SLGKQKVIIIRKSLLDELMEVQHF [F8I], the protein stability index is 2.15.

For MLGKQKVFIIRKSLLDELMEVQHF [S1M], the protein stability index turned out to be 2.1.

Consider NLGKQKVFIIRKSLLDELMEVQHF [S1N], for which the protein stability index was 2.68.

As for ALGKQKVFIIRKSLLDELMEVQHF [S1A], the protein stability index was found to be 2.41.

In the case of QLGKQKVFIIRKSLLDELMEVQHF [S1Q], the protein stability index worked out at 2.6.

For SLGIQKVFIIRKSLLDELMEVQHF [K4I], the protein stability index stood at 2.17.

Take SLGLQKVFIIRKSLLDELMEVQHF [K4L]: the protein stability index is 2.54.

As for SLGCQKVFIIRKSLLDELMEVQHF [K4C], the protein stability index was 2.88.

Take SLGTQKVFIIRKSLLDELMEVQHF [K4T]: the protein stability index was found to be 2.4.

As for SLGPQKVFIIRKSLLDELMEVQHF [K4P], the protein stability index was 1.74.

Take SLGAQKVFIIRKSLLDELMEVQHF [K4A]: the protein stability index amounted to 1.55.

In the case of SLGEQKVFIIRKSLLDELMEVQHF [K4E], the protein stability index is 1.52.
